B1: NAN15 (4B2) (VHH)
VHH: QVQLQASGGGLVQPGEHLLLSCAASGFAFGIYTMGWYRQAPGKEREKVASISRTSDSWNYADSVKGRFTISRENAKNTLYLQMNSLKPEDTALYFCAKSRSAWNTDDIEYWGQGTQVG
B2: NAN4 (5A1) (VHH)
VHH: QVQLQASGGGLVQPGGSLTLSCAASGSIDSILAMGWYRQGPGKQREFVASISWSGDITYYADSAKGRFTISRDNAKNTVYLQMNSLKPEDTAVYYCNAGPDMQISGPTDDYDYWGQGTQVG
B3: NAN10 (4B4) (VHH)
VHH: QVQLQASGGGLVQGGESLRLSCAASGRTVAEYTIGWYRQAPGKEREFVAGPSWHARGTSYLDSVKGRFTISRDNTKDTVYLQMNTLKPEDTAVYYCNADVNTDYSEYVEYWGQGTQVG
B4: NAN7/8 (5A5) (VHH)
VHH: QVQLQASGGGLVEPGGSLRLSCAASGAIFRIAAMGWYRQAPGKERELVATITRGGSTNYADSVKGRFTISRDNAKNTAYLQMDSLKAEDTGVYYCNAGLWATTSANYWGQGTQVG
B5: NAN27 (VHH)
VHH: QPQAFGGGLVQPGGSLRLSCVASGSTDSIYAMGWYRQAPGKQRELVATITSADSTNYADSVKGRFTISRDNAKNTVVLQMNSLKPEDTAVYYCNAGSLAGYDYWGQGTQVG
B6: NAN9 (VHH)
VHH: QVQLQASGGGLVQPGGSLRLSCATSGFTLDNLAIGWLRQAPGKEREGVSCISGSVGSTYYVDSVEGRFTISKDNAKNTVALQMDRLNPEDTAVYYCSAVGRERTHLPNWQYWGQGTQVG
B7: NAN20 (VHH)
VHH: QVQLVQSGGEVKKPGASVKVSCKASGYTFTNYGITWARQAPGKGLEWVGGIYSDGSEPYYADSMKGRFTISRDNVKSTLYLQMNDLKPEDTALYFCAKGRGDFLKSAWRENRRYDSWGQGTQVG
B8: NAN13/14 (VHH)
VHH: QVQLQASGGGLAQPGGSLRLSCAASGFTFSSYAMSWARQAPGKGLEWVSGIYSDGSGSYYADSVKGRFTISRDNAKNTLYLQMNSLKPEDTALYYCAKGSWSRGIKETDYWGQGTQVG
B9: NAN6 (VHH)
VHH: QVQLQASGGGLVQPGGSLTLSCAASGSIDSILAMGWYRQGPGKQRELVATITSDGGSTNYAEYVKGRFTISRDDANNTACLQMDNLKPDDTAVYYCNAKGRRLSYGYWGQGTQVG
B10: NAN22 (VHH)
VHH: QVQLQASGGGLVQPGGSLRLSCAASGSIFGLYAMGWYRQAPGKQRDLVAAIASGGSTNYADSVKGRFTISRDNAKNTVYLQMNSLKPEDTADYYCNVAGDVTAQNRCKHLEVWGQGTQVG

Target: canine PD-1 (canine)
Test: ELISA, affinity for canine PD-1 (Table 2)

Going from B1 to B2, the Kd rises from 2.51 nM to 7 nM (2.8-fold).

First: B3
Second: B4
The Kd of the first is 2.2-fold lower: 2.3 nM for the first, 5.01 nM for the second.

Target: canine PD-1 (canine)
Test: competition ELISA, inhibition of canine PD-1 binding to canine PD-L1; competitor canine PD-L1 (Table 2)

First: B1
Second: B2
The IC50 of the first is 1.6-fold lower: 5 nM for the first, 8.25 nM for the second. The first is the more potent here.

B3 and B4 are within 1.5-fold of each other in IC50: 5.04 nM for the first, 6.83 nM for the second.

Target: canine PD-1 (canine)
Test: ELISA on plate-bound tagged canine PD-1, Kd by the Bobrovnik method

Compared with B1, B2 is 2.8-fold higher in Kd: 2.51 nM for the first, 7 nM for the second.

Compared with B3, B4 is 2.2-fold higher in Kd: 2.3 nM for the first, 5.01 nM for the second.

Target: canine PD-1 (canine)
Test: ELISA; footnote: predicted affinity, not quantitatively measured

B5 and B6 cannot be ordered by Kd: greater than 10 nM for the first, greater than 10 nM for the second.

B7 and B8 cannot be ordered by Kd: greater than 10 nM for the first, greater than 10 nM for the second.

B9 and B10 cannot be ordered by Kd: greater than 10 nM for the first, greater than 10 nM for the second.

Target: canine PD-1 (canine)
Test: competition ELISA, blockade of canine PD-1/PD-L1 binding; competitor canine PD-L1

First: B1
Second: B2
The IC50 of the first is 1.6-fold lower: 5 nM for the first, 8.25 nM for the second. The first is the more potent here.

B3 and B4 are within 1.5-fold of each other in IC50: 5.04 nM for the first, 6.83 nM for the second.

— patent US20210047412A1
